The record followed here is the Human Domainome abundance scans (Beltran et al. 2025).

± gives the uncertainty stated by the source.

The data set can be described thus: abundance fitness (aPCA) (normalised: wild type 0, dead -1); higher = more abundant; growth selection in yeast, the domain comes from the species named. Conditions: Homo sapiens.
“E3 ubiquitin-protein ligase NEDD4-like T209D, Q96PU5”: the abundance fitness was -0.311 ± 0.072.

Consider “E3 ubiquitin-protein ligase NEDD4-like T209E, Q96PU5”, for which the abundance fitness is -0.31 ± 0.078.

With “E3 ubiquitin-protein ligase NEDD4-like T209F, Q96PU5”, the abundance fitness was -0.325 ± 0.083.

Consider “E3 ubiquitin-protein ligase NEDD4-like T209G, Q96PU5”, for which the abundance fitness is -0.305 ± 0.062.

“E3 ubiquitin-protein ligase NEDD4-like T209H, Q96PU5”: the abundance fitness is -0.32 ± 0.11.

Regarding “E3 ubiquitin-protein ligase NEDD4-like T209I, Q96PU5”, the abundance fitness is -0.036 ± 0.088.

For the substance “E3 ubiquitin-protein ligase NEDD4-like T209L, Q96PU5”, the abundance fitness is -0.095 ± 0.073.

Take “E3 ubiquitin-protein ligase NEDD4-like T209M, Q96PU5”: the abundance fitness was -0.093 ± 0.1.

“E3 ubiquitin-protein ligase NEDD4-like T209N, Q96PU5”: the abundance fitness is -0.095 ± 0.092.

Consider “E3 ubiquitin-protein ligase NEDD4-like T209P, Q96PU5”, for which the abundance fitness is -0.002 ± 0.059.

Consider “E3 ubiquitin-protein ligase NEDD4-like T209Q, Q96PU5”, for which the abundance fitness is -0.21 ± 0.095.

Regarding “E3 ubiquitin-protein ligase NEDD4-like T209R, Q96PU5”, the abundance fitness was -0.096 ± 0.058.

“E3 ubiquitin-protein ligase NEDD4-like T209S, Q96PU5” had an abundance fitness of 0.036 ± 0.073.

As to “E3 ubiquitin-protein ligase NEDD4-like T209V, Q96PU5”, the abundance fitness was -0.079 ± 0.067.

As to “E3 ubiquitin-protein ligase NEDD4-like T209Y, Q96PU5”, the abundance fitness was -0.649 ± 0.11.

As to “E3 ubiquitin-protein ligase NEDD4-like T218A, Q96PU5”, the abundance fitness was -0.045 ± 0.057.

For “E3 ubiquitin-protein ligase NEDD4-like T218C, Q96PU5”, the abundance fitness was -0.031 ± 0.076.

Consider “E3 ubiquitin-protein ligase NEDD4-like T218D, Q96PU5”, for which the abundance fitness is -0.347 ± 0.096.

For “E3 ubiquitin-protein ligase NEDD4-like T218E, Q96PU5”, the abundance fitness was -0.122 ± 0.062.

With “E3 ubiquitin-protein ligase NEDD4-like T218F, Q96PU5”, the abundance fitness is -0.028 ± 0.084.

Take “E3 ubiquitin-protein ligase NEDD4-like T218G, Q96PU5”: the abundance fitness is -0.146 ± 0.061.

Consider “E3 ubiquitin-protein ligase NEDD4-like T218H, Q96PU5”, for which the abundance fitness is -0.017 ± 0.1.

With “E3 ubiquitin-protein ligase NEDD4-like T218I, Q96PU5”, the abundance fitness was -0.118 ± 0.096.

Regarding “E3 ubiquitin-protein ligase NEDD4-like T218K, Q96PU5”, the abundance fitness was -0.06 ± 0.072.

“E3 ubiquitin-protein ligase NEDD4-like T218M, Q96PU5”: the abundance fitness was -0.128 ± 0.089.

With “E3 ubiquitin-protein ligase NEDD4-like T218N, Q96PU5”, the abundance fitness is -0.244 ± 0.11.

With “E3 ubiquitin-protein ligase NEDD4-like T218Q, Q96PU5”, the abundance fitness was -0.218 ± 0.095.

As for “E3 ubiquitin-protein ligase NEDD4-like T218R, Q96PU5”, the abundance fitness is -0.184 ± 0.058.

With “E3 ubiquitin-protein ligase NEDD4-like T218S, Q96PU5”, the abundance fitness is -0.236 ± 0.07.

“E3 ubiquitin-protein ligase NEDD4-like T218V, Q96PU5” had an abundance fitness of 0.092 ± 0.056.

On to “E3 ubiquitin-protein ligase NEDD4-like T218W, Q96PU5”, for which the abundance fitness was -0.084 ± 0.075.

With “E3 ubiquitin-protein ligase NEDD4-like T218Y, Q96PU5”, the abundance fitness came out at 0.211 ± 0.1.

Take “E3 ubiquitin-protein ligase NEDD4-like T219A, Q96PU5”: the abundance fitness was -0.28 ± 0.057.

Regarding “E3 ubiquitin-protein ligase NEDD4-like T219C, Q96PU5”, the abundance fitness was -0.137 ± 0.09.

Turning to “E3 ubiquitin-protein ligase NEDD4-like T219D, Q96PU5”, the abundance fitness was -0.595 ± 0.085.

With “E3 ubiquitin-protein ligase NEDD4-like T219E, Q96PU5”, the abundance fitness was -0.145 ± 0.068.

In the case of “E3 ubiquitin-protein ligase NEDD4-like T219F, Q96PU5”, the abundance fitness was -0.577 ± 0.075.

With “E3 ubiquitin-protein ligase NEDD4-like T219G, Q96PU5”, the abundance fitness is -0.632 ± 0.055.

Regarding “E3 ubiquitin-protein ligase NEDD4-like T219H, Q96PU5”, the abundance fitness is -0.232 ± 0.099.

For “E3 ubiquitin-protein ligase NEDD4-like T219I, Q96PU5”, the abundance fitness is -0.56 ± 0.081.

Regarding “E3 ubiquitin-protein ligase NEDD4-like T219K, Q96PU5”, the abundance fitness is -0.157 ± 0.099.

As for “E3 ubiquitin-protein ligase NEDD4-like T219L, Q96PU5”, the abundance fitness was -0.623 ± 0.076.

For “E3 ubiquitin-protein ligase NEDD4-like T219M, Q96PU5”, the abundance fitness was -0.285 ± 0.091.

For the substance “E3 ubiquitin-protein ligase NEDD4-like T219N, Q96PU5”, the abundance fitness is -0.221 ± 0.067.

For the substance “E3 ubiquitin-protein ligase NEDD4-like T219P, Q96PU5”, the abundance fitness is -0.38 ± 0.1.

In the case of “E3 ubiquitin-protein ligase NEDD4-like T219R, Q96PU5”, the abundance fitness was -0.3 ± 0.057.

“E3 ubiquitin-protein ligase NEDD4-like T219S, Q96PU5”: the abundance fitness is -0.189 ± 0.086.

Turning to “E3 ubiquitin-protein ligase NEDD4-like T219V, Q96PU5”, the abundance fitness was -0.348 ± 0.063.

Turning to “E3 ubiquitin-protein ligase NEDD4-like T219W, Q96PU5”, the abundance fitness was -0.598 ± 0.075.

Consider “E3 ubiquitin-protein ligase NEDD4-like T219Y, Q96PU5”, for which the abundance fitness is -0.451 ± 0.089.

The substance “E3 ubiquitin-protein ligase NEDD4-like V203A, Q96PU5” gave an abundance fitness of 0.023 ± 0.063.

For the substance “E3 ubiquitin-protein ligase NEDD4-like V203C, Q96PU5”, the abundance fitness is -0.066 ± 0.097.

Turning to “E3 ubiquitin-protein ligase NEDD4-like V203D, Q96PU5”, the abundance fitness is -0.143 ± 0.073.

As for “E3 ubiquitin-protein ligase NEDD4-like V203E, Q96PU5”, the abundance fitness is -0.033 ± 0.068.

For “E3 ubiquitin-protein ligase NEDD4-like V203F, Q96PU5”, the abundance fitness was -0.055 ± 0.069.

“E3 ubiquitin-protein ligase NEDD4-like V203G, Q96PU5”: the abundance fitness is -0.424 ± 0.053.

On to “E3 ubiquitin-protein ligase NEDD4-like V203H, Q96PU5”, for which the abundance fitness is 0.016 ± 0.11.

Regarding “E3 ubiquitin-protein ligase NEDD4-like V203I, Q96PU5”, the abundance fitness was -0.293 ± 0.097.

For the substance “E3 ubiquitin-protein ligase NEDD4-like V203K, Q96PU5”, the abundance fitness is -0.064 ± 0.078.

As to “E3 ubiquitin-protein ligase NEDD4-like V203M, Q96PU5”, the abundance fitness is -0.096 ± 0.059.

Consider “E3 ubiquitin-protein ligase NEDD4-like V203P, Q96PU5”, for which the abundance fitness was -0.368 ± 0.07.
